In patent US20250074980A1 (BRIGHAM AND WOMEN S HOSPITAL, published 2025):
Positions count from the first letter of the chain named. Names may count otherwise. One block for each binder: values may come before it.

Experiments:
[1] = biological target: T1, His-tagged CEACAM1 (human, UniProt P13688 35-428); assay: SPR multi-cycle
T1 construct: 45 kDa SPR analyte; also called CEACAM1-HIS; CEACAM1 analyte
T1 sequence: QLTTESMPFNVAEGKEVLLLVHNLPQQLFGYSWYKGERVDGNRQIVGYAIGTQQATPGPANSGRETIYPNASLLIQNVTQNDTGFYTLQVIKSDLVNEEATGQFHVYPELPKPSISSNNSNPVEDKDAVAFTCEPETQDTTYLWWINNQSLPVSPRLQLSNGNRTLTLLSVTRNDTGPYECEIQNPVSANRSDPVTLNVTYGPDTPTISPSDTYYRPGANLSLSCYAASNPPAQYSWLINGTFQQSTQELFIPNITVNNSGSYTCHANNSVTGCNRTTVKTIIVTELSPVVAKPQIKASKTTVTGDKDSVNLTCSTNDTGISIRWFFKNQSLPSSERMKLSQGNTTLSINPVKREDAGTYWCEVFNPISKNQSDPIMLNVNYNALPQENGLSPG
In short: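 Surface plasmon resonance sensorgrams on a Biacore T200 provided Kon, koff, Kd and relative KD. Antibody at 1 μg/ml was captured to ~75 RU on a Series S Protein A chip, then His-tagged CEACAM1 was injected at 80 μl/min in 2-fold steps from 200 to 3.125 nM or 100 to 1.5625 nM, with 50 or 150 seconds of association and 100 seconds of dissociation, at 25° C in HBS-P+ (pH 7.4).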

[2] = biological target: T2, CEACAM1 on transfected HeLa cells (human, UniProt P13688 35-526); assay: flow cytometry, transfected HeLa
T2 construct: also called HeLa-CEACAM1; HeLa C1
T2 sequence: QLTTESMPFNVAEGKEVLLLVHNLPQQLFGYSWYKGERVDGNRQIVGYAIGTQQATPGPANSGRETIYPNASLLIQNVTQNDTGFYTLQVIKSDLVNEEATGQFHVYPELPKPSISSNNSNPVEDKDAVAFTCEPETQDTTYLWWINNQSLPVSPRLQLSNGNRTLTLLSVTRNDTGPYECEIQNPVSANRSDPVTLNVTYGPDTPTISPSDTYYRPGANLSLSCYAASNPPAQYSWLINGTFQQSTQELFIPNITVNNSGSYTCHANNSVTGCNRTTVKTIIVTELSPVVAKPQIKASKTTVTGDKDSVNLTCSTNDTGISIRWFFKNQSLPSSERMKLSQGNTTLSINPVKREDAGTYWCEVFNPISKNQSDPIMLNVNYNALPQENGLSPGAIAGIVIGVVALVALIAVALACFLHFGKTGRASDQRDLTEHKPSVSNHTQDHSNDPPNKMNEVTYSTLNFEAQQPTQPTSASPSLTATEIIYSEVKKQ

[3] = biological target: T3, CEACAM5 on transfected HeLa cells (human, UniProt P06731 35-685); assay: flow cytometry, transfected HeLa
T3 construct: whole, on cells; also called HeLa-CEACAM5; HeLa C5
T3 sequence (looked up): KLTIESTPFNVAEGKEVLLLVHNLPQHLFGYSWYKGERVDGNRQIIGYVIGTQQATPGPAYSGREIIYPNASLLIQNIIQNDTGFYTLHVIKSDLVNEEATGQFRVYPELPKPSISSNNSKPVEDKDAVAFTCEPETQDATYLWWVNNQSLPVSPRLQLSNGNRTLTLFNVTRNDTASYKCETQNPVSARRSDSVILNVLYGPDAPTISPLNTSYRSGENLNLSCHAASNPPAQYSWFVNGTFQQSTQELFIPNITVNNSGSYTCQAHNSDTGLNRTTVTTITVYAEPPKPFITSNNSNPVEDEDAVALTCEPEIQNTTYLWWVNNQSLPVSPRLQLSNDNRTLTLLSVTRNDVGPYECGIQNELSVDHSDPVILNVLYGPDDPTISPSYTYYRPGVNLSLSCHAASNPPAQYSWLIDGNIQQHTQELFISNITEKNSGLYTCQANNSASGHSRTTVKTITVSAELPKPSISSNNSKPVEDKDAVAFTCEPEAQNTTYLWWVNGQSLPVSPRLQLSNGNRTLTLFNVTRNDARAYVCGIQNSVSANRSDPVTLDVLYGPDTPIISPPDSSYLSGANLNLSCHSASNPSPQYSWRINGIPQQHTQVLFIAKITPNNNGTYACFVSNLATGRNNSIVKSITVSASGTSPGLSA

[4] = biological target: T4, CEACAM6 on transfected HeLa cells (human, UniProt P40199 35-320); assay: flow cytometry, transfected HeLa
T4 construct: whole, on cells; also called HeLa-CEACAM6; HeLa C6
T4 sequence (looked up): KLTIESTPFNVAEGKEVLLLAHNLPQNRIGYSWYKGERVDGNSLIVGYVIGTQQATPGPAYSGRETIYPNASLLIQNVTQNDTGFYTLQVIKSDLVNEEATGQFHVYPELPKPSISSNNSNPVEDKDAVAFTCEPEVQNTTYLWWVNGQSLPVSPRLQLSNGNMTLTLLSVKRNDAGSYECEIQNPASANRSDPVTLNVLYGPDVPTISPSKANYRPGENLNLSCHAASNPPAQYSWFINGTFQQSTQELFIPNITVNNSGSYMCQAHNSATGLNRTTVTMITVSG

[5] = biological target: T5, GST-CEACAM1 (human, UniProt P13688 35-141, limits assumed); assay: competition ELISA vs parental murine antibody
T5 construct: also called human CEACAM1-GST protein
T5 sequence: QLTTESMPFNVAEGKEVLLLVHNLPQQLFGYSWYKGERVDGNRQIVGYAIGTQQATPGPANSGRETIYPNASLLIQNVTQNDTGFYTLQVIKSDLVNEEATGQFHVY
Protocol: The binding of the purified antibodies to human CEACAM1 was assessed in a competition ELISA assay. Nunc Immuno MaxiSorp 96 well flat bottom microtitre plates were pre-coated with 1 μg/ml of GST-CEACAM1 in 1×PBS, overnight at 4° C. The following day the plates were blocked for 1 hour at room temperature (“RT”) with 2% BSA/PBS before washing 3× with PBST pH 7.4. A 3-fold dilution series of the chimeric antibody chimeric antibody VH0/Vκ0, an irrelevant IgG4 antibody, and the humanized CEACAM1 antibodies from 100 μg/ml to 0.07 or 0.002 μg/ml were pre-mixed with a constant concentration of parental murine antibody (0.45 μg/ml final concentration), added to the plate and incubated for 1 hour at room temperature. Following 3×PBST washes, the binding of the parental murine CEACAM1 antibody was detected with an anti-mouse-HRP and TMB substrate. The reaction was stopped with 3 M HCl, absorbance read at 450 nm on a Dynex Technologies MRX TC II plate reader and the binding curves plotted. The binding of the humanized CEACAM antibody variants to CEACAM1 was compared to the chimeric antibody (VHO/Vκ0), which was included on each plate.

[6] = biological target: T5, GST-CEACAM1; assay: competition ELISA vs parental murine antibody, experiment 1
[7] = biological target: T5, GST-CEACAM1; assay: competition ELISA vs parental murine antibody, experiment 2
[8] = biological target: T5, GST-CEACAM1; assay: scFv binding ELISA on GST-CEACAM1 coated at 1.0 µg/ml, anti-HIS6-HRP and TMB
Protocol: The binding of affinity matured purified scFv to human CEACAM1 was analyzed using GST-CEACAM1. A Nunc Immuno MaxiSorp 96 well flat bottom microtitre plate was pre-coated with 1.0 μg/ml GST-CEACAM1 overnight at 4° C. The following day a two-fold dilution series of VH1/Vκ8 S29A parent scFv or test scFv (50 μg/ml to 0.8 μg/ml) in PBSB was incubated for 2 hours at RT on pre-coated ELISA plates. The binding of scFv was detected with an anti-HIS6-HRP antibody and TMB substrate. The reaction was stopped with 3 M HCl, absorbance read at 450 nm on a Dynex Technologies MRX TC II plate reader and the binding curves plotted. Parent scFv (VH1/Vκ8 S29A scFv) was included on each ELISA plate as a reference. An irrelevant scFv was included on at least one plate as a negative control. It was observed that a number of scFvs had improved binding to CEACAM1 compared to the parental VH1/Vκ8 S29A scFv. […] All 34 scFv variants were reformatted to whole IgG to provide greater accuracy with regard to purity and quantitation. The reformatting further allowed for an analysis of the avidity component of antibody binding, which is influenced by the bivalent nature of IgGs. As used herein, “avidity” is the measure of the strength of binding between an antigen-binding molecule (such as an antibody or antibody fragment thereof described herein) and the pertinent antigen.

- Kd [1]: 110 nM
- koff [1]: 0.0277 s⁻¹
- kon [1]: 251000 M⁻¹ s⁻¹
- relative KD [1]: 1.05
- relative amount of cells bound [2]: 77.9
- relative amount of cells bound [3]: 9.82
- relative amount of cells bound [4]: 0
- average relative IC50 [5]: 0.84
- relative IC50 [6]: 0.96
- relative IC50 [7]: 0.72
B1: VH0/Vκ0 S29A (antibody, IgG4, V domains shown)
VH: EVQLVESGGDLVKPGGSLKLACAASGFIFSSHGMSWVRQTPDKRLEWVATISSGGTYTYYPDSVKGRFTISRDNDKNTLYLQMNSLKSEDTAMYYCARHDFDYDAAWFAYWGQGTLVTVSS
VL: QIVLTQSPALMSASPGVKVTMTCSANSAVSYMYWYRQKPRSSPKPWIYLTSNLASGVPARFSGSGSGTSYSLTISSMEAEDAATYYCQQWSSNPPTFGSGTKLEIK
notes: aglycosylated chimeric, IgG4 (S241P), kappa

- EC50 (read off the curve) [8]: ~10 µg/mL
B2: CP08C04 (scFv)
scFv, VH-linker-VL: EVQLLESGGGLVQPGGSLRLSCAASGFTFSSHGMSWVRQAPGKGLEWVATISSGGTYTYYPDSVKGRFTISRDNSKNTLYLQMNSLKAEDTAMYYCARHDFDYDAAWFAYWGQGTLVTVSSGGGGSGGGGSGGGGSEIVLTQSPATLSLSPGERATLSCRANSAVSYMYWYQQKPGQAPRPWIYLTSNRATGVPARFSGSGSGTDYTLTISSLEPEDFAVYYCQQWSSNPPTFGQGTKLEIK
notes: purified scFv form; the IgG form is m90

- EC50 (read off the curve) [8]: ~10 µg/mL
B3: CP09F03 (scFv)
scFv, VH-linker-VL: B2 scFv, VH-linker-VL with S30N, S31N
notes: purified scFv form; the IgG form is m63
